The target of the experiment is T1, calmodulin (Homo sapiens, UniProt P0DP23).
T1 construct: purchased CalBiochem, USA
Nature of the experiment: Yeast proteome chip probed with biotinylated calmodulin. Format: binding. The following applies: biotinylated calmodulin in the presence of calcium. The source says:
To test for protein-protein interactions, the yeast proteome was probed with calmodulin (11). Calmodulin is a highly conserved calcium-binding protein involved in many calcium-regulated cellular processes and has many known physical partners (Hook et al., 2001, Annu. Rev. Pharmacol. Toxicol. 41:471). The calmodulin probe was biotinylated, and bound probe was detected using Cy3-labeled streptavidin. As a control, the yeast proteome was probed with Cy3-labeled streptavidin alone.
Generally, protein-protein interactions can be assayed as follows. Blocked proteome chips are washed three to five times in PBS buffer, and the extra liquid on the glass surface is removed by tapping the slides vertically on a KIMWIPE™. 200 ∞l of biotinylated protein probe is added to the proteome chip and immediately covered by a hydrophobic plastic cover slip (GRACE BIO-LABS™, USA). After trapped air bubbles are removed, the chip is incubated in a humidity chamber at room temperature (RT) for one hour. To remove the cover slip, the chip is immersed into large volume of PBS buffer (>50 ml), and the slip should float away. The chip is then moved to a second PBS bath (>50 ml) and washed 3×5 min with shaking at RT. After removing extra liquid on the surface of the chip, at least 150 μl of Cy3- or Cy5-conjugated streptavidin (PIERCE™, USA; 1:2000 to 1:4000 dilution) is added to the surface and covered by a hydrophobic plastic cover slip (GRACE BIO-LABS™, USA). The chip is incubated for greater than 30 min in the dark at RT. The chip is then washed as described above. To completely remove the liquid on the chip, the chip is spun to dryness at 1500-2000 rpm for 5-10 min at RT.
• 1. S. Fields, Y. Kohara, D. J. Lockhart, Proc. Natl. Acad. Sci. 96, 8825 (1999); A. Goffeau et al., Science 274, 563 (1996). • 2 P. Ross-Macdonald et al., Nature 402, 413 (1999); J. L., DeRisi, V. R. Iyer, P. O. Brown, Science 278, 680 (1997); E. A. Winzeler et al., Science 285, 901 (1999). P. Uetz et al., Nature 403, 623 (2000); T. Ito et al., Proc. Natl. Acad. Sci. USA. 97, 1143 (2000) • 3 H. Zhu, M. Snyder, Curr. Opin. Chem. Biol. 5, 40 (2001). • 4 M. R. Martzen et al., Science 286, 1153 (1999). • 5 H. Zhu et al., Nat. Genet. 26, 283 (2000). • 6 G. MacBeath, S. L. Schreiber, Science 289, 1760 (2000). • 7 A. Caveman, J. Cell Sci. 113, 3543 (2000). • 8 P. Arenkov et al., Anal. Biochem 278, 123 (2000). • 9 D. A. Mitchell, T. K. Marshall, R. J. Deschenes, Yeast 9, 715 (1993). The expression vector pEGH was created by inserting an RGS-HisX6 epitope tag between the GST gene and the polycloning site of pEG(KG). The yeast ORFs were cloned using the strategy described previously (5), except every step was done in a 96-well format. Plasmid DNAs confirmed by DNA sequencing were reintroduced into both yeast (Y258) and E. coli (DH5a). […] 0.1 mM calcium was present in buffers in all subsequent steps. The chip was washed three times with PBS at RT. Cy3-conjugated streptavidin (Jackson IR, USA) (1:5000 dilution) was added to the chip and incubated for 30 min at RT. After extensive washing, the chip was spun dry and scanned using a microarray scanner; the data was subsequently acquired with the GENEPIX™ array densitometry software (Axon, USA). • 12 S. S. Hook, A. R. Means, Annu. Rev. […]

From patent US20050182242A1, “Global analysis of protein activities using proteome chips” (priority 2001, published 2005) come the findings set out here.

B1: MY04: yeast class V myosin heavy chain, GST-HisX6 fusion (protein, UniProt P32492 1-1471, looked up)
Myosin-4: MSFEVGTKCWYPHKEQGWIGGEVTKNDFFEGTFHLELKLEDGETVSIETNSFENDDDHPTLPVLRNPPILESTDDLTTLSYLNEPAVLHAIKKRYMNGQIYTYSGIVLIAANPFDKVDHLYSREMIQNYSSKRKDELEPHLFAIAEEAYRFMVHEKANQTVVVSGESGAGKTVSAKYIMRYFASVQESNNREGEVEMSQIESQILATNPIMEAFGNAKTTRNDNSSRFGKYLQILFDENTTIRGSKIRTYLLEKSRLVYQPETERNYHIFYQILEGLPEPVKQELHLSSPKDYHYTNQGGQPNIAGIDEAREYKITTDALSLVGINHETQLGIFKILAGLLHIGNIEMKMTRNDASLSSEEQNLQIACELLGIDPFNFAKWIVKKQIVTRSEKIVTNLNYNQALIARDSVAKFIYSTLFDWLVDNINKTLYDPELDQQDHVFSFIGILDIYGFEHFEKNSFEQFCINYANEKLQQEFNQHVFKLEQEEYVKEEIEWSFIEFSDNQPCIDLIENKLGILSLLDEESRLPSGSDESWASKLYSAFNKPPSNEVFSKPRFGQTKFIVSHYAVDVEYEVEGFIEKNRDSVSLGHLDVFKATTNPIFKQILDNRELRSDDAPEEQNTEKKIMIPARLSQKKPTLGSMFKKSLGELMAIINSTNVHYIRCIKPNSEKKPWEFDNLMVLSQLRACGVLETIRISCAGFPSRWTFDEFVQRYFLLTDYSLWSGILYNPDLPKEAIVNFCQSILDATISDSAKYQIGNTKIFFKAGMLAFLEKLRTNKMNEICIIIQKKIRARYYRLQYLQTMESIKKCQSQIRSLLVRTRVDHELKTRAAILLQTNIRALWKREYYRAAIGQIIKLQCTCKRKLILDSVNRKFMLMAAVIIQSYIRSYGHKTDYRTLKRSSILVQSAMRMQLARRRYIVLQKEVEERNIRASYGIGLLEEAIEFKNSFILNLEMLNDSYTRLTQLLQGDLSNIPSKQRQEYETIVNGYNDKISKLKTLQVEIMNTLNKKNALKERKKKQSSLIQSHMQSLAAIKGNKPSRLSDEVKSMKQELAFIENVIAQDFTTTYSANKNDKVKGLGIAGQQVKPKLVNVIRRESGNPDLLELLMDLNCYTLEVTEGYLKKVNVTEVNGDNVLGPIHVITTVVSSLVRNGLLIQSSKFISKVLLTVESIVMSLPKDETMLGGIFWLSNLSRLPAFAANQKTLYEANGGDEKDKLTLIYLNDLENETLKVFDKIYSTWLVKFMKHASAHIEIFDMVLNEKLFKNSGDEKFAKLFTFLNEFDAVLCKFQVVDSMHTKIFNDTLKYLNVMLFNDLITKCPALNWKYGYEVDRNIERLVSWFEPRIEDVRPNLIQIIQAVKILQLKISNLNEFKLLFDFWYALNPAQIQAILLKYKPANKGEAGVPNEILNYLANVIKRENLSLPGKMEIMLSAQFDSAKNHLRYDTSAITQNSNTEGLATVSKIIKLDRK
modifications: GST-HisX6 tag
notes: yeast class V myosin heavy chain, GST-HisX6 fusion
On to B1, for which the calmodulin binding result is given as “identified”.

B2: CMK1: yeast calcium/calmodulin-dependent serine/threonine protein kinase, GST-HisX6 fusion (protein)
chain: MDDKVSEKESSPKQTEEDSEGKMAHVQPASYVNKKKYVFGKTLGAGTFGVVRQAKNTETGEDVAVKILIKKALKGNKVQLEALYDELDILQRLHHPNIVAFKDWFESKDKFYIITQLAKGGELFDRILKKGKFTEEDAVRILVEILSAVKYMHSQNIVHRDLKPENLLYIDKSDESPLVVADFGIAKRLKSDEELLYKPAGSLGYVAPEVLTQDGHGKPCDIWSIGVITYTLLCGYSAFRAERVQDFLDECTTGEYPVKFHRPYWDSVSNKAKQFILKALNLDPSKRPTAAELLEDPWIICTELKTHNLLPGLKEGLDARQKFRNSVERVRLNMKIQKLRDLYLEQTESDSDFDEGSQANGSVPPLKATDTSQLSKKLSEEEQSKLKSELTSKAFAQLVNTVLAEKEKFLNINRVCSSDSDLPGSDIKSLDEAKEKPEGKDTKTEE
modifications: left off: a dimerising Fc or GST
notes: yeast calcium/calmodulin-dependent serine/threonine protein kinase, GST-HisX6 fusion
B2: the calmodulin binding result is on record as “identified”.
